pKd: −log10 of the molar value. “And” between values parts separate entries of the source, which are not always exact repeats. Identical values can stand only once.
What was measured:
human FcRn (human) = human FcRn (human) (UniProt P55899); assay: AlphaScreen competition, human FcRn (n=1); displaced: biotinylated control mAb B21M WT IgG1 (m27); pH 6.0
[1] = molecular target: recombinant human IL1RAP ECD (human) (UniProt Q9NPH3); assay: SPR (ProteOn)
human FcγRI (human) = human FcγRI (human) (UniProt P12314); assay: AlphaScreen competition, human FcγRI (n=1); displaced: biotinylated control mAb B21M hIgG1 AlaAla; pH 7.2
human FcγRI (human), sequence (P12314 16-292 limits assumed): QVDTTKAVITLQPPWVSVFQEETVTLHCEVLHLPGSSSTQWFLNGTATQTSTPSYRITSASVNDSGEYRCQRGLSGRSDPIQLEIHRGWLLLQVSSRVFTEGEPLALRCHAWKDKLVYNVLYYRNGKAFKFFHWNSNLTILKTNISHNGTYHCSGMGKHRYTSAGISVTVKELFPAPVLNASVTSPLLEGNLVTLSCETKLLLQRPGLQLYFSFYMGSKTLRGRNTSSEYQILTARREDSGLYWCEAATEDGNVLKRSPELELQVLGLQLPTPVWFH

recombinant human IL1RAP ECD (human), sequence (Q9NPH3 other isoform, or with tags, fused parts or gaps): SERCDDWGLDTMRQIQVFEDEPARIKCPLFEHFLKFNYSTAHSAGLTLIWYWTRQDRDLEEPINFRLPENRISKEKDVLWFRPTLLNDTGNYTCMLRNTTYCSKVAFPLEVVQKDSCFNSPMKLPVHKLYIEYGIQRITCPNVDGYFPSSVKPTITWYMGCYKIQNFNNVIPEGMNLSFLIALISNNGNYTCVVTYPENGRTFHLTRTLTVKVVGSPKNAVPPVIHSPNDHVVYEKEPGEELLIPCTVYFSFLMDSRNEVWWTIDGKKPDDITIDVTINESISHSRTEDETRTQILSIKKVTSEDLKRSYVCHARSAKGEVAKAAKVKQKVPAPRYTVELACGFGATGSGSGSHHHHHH

IC50 (read off the curve) (human FcRn (human)) [nM] | pKd [1] | koff [1] | kon [1] | IC50 (read off the curve) (human FcγRI (human)) [nM] | Substance
200 | – | – | – | – | Human IgG4-PAA isotype control (antibody)
– | 8.85 and 8.92 | 0.000369 s⁻¹ and 0.000336 s⁻¹ | 260000 M⁻¹ s⁻¹ and 277000 M⁻¹ s⁻¹ | – | anti-human/cyno IL1RAP, mouse IgG1, R&D #MAB676 (antibody)
90 | – | – | – | 3 | wild type hIgG1 (antibody)

From patent US20190270826A1
